In data set [1] the test system is AddAB helicase-nuclease (nuclease-deficient AddA D1172A, AddB D961A) AddA D1172A, AddB D961A (Bacillus subtilis). The note with it: unwinding monitored with IDCC-SSB at low ionic strength (20 mM NaCl), 2 mM MgCl2, ATP, 37 C; weaker at 200 mM NaCl.
In data set [2] the target is 6-IATR-E. coli SSB (W88C) W88C (mature protein numbering as printed) (Escherichia coli) (UniProt P0AGE0). Conditions: data not shown.

EcoRI-linearized pBR322 registered an activity (bp s-1 per binding site) in data set [1] of 1000.
As for poly-dT, in data set [2], the activity (fold fluorescence (+/- DNA)) worked out at 4.5.

The values above are taken from patent US20110177501.
